Assay results published in patent publication JP2005185281A.

What was measured:
[1] = biological target: SKOv-3細胞 (卵巣癌細胞株) の細胞表面抗原; assay: phage recovery: 1x10^7 phage + 1x10^7 SKOv-3 cells, 4C 4 h, 3 spins through solution (3) Isopropyl Ether:1.1.1-Trichloroethane:Hexane=20:50:30; colonies counted
[2] = biological target: SKOv-3細胞 (卵巣癌細胞株) の細胞表面抗原; assay: phage recovery: 1x10^7 phage + 1x10^7 SKOv-3 cells, 4C 4 h, 3 spins through solution (1) 1%BSA-MEM; colonies counted
[3] = biological target: SKOv-3膜タンパク (可溶性分画、ダイナビーズ結合); assay: phage recovery: Dynabeads with 10 ug SKOv-3 membrane protein + 1x10^8 cfu phage
[4] = biological target: SKOv-3細胞 (卵巣癌細胞株) の細胞表面抗原; assay: phage recovery: 1x10^7 phage + 1x10^7 SKOv-3 cells, 3 spins through solution (1) 1%BSA-MEM; colonies counted
[5] = biological target: SKOv-3細胞 (卵巣癌細胞株) の細胞表面抗原; assay: phage recovery: 1x10^7 phage + 1x10^7 SKOv-3 cells, 3 spins through solution (2) Ficoll-Paque diluted 4-fold in PBS; colonies counted
[6] = biological target: SKOv-3細胞 (卵巣癌細胞株) の細胞表面抗原; assay: phage recovery: 1x10^7 phage + 1x10^7 SKOv-3 cells, 4C 4 h, 3 spins through solution (2) Diphenyl Ether:1.1.1-Trichloroethane:Hexane=44:27:33; colonies counted
[7] = biological target: SKOv-3膜タンパク (可溶性分画、ダイナビーズ結合); assay: phage recovery on SKOv-3 membrane protein beads with 400 ug free SKOv-3 membrane protein as competitor
[8] = biological target: SKOv-3膜タンパク (可溶性分画、ダイナビーズ結合); assay: phage recovery on SKOv-3 membrane protein beads with 400 ug free SKOv-3 membrane protein against recovery without it
[9] = biological target: SKOv-3膜タンパク (可溶性分画、ダイナビーズ結合); assay: phage recovery on SKOv-3 membrane protein beads with 400 ug free HeLa membrane protein present

回収されたファージの数 [1]	回収されたファージの数 [2]	回収されたファージ (cfu) [3] [cfu]	回収されたファージの数 [4]	回収されたファージの数 [5]	回収されたファージの数 [6]	回収されたファージ (cfu) [7] [cfu]	回収の変化 (遊離SKOv-3膜タンパク共存 / 非共存) [8] [fold]	回収されたファージ (cfu) [9] [cfu]	Molecule
198 ファージ数	308 ファージ数	11	1040 ファージ数	1040 ファージ数	176 ファージ数	–	–	–	pAALSC3-D1.3HL 抗HEL(hen egg lysozyme)抗体ファージ (scFv)
–	–	87000	–	–	–	2200	0.025	50000	クローン126 (015-126 pIII:抗HER2抗体、ファージpIII融合scFv型抗体) (scFv, part only; not given: CL and pIII fusion parts, part only) scFv, part: QVQLVQSGAEVKKPGESLKISCKGSGYSFTSYWIGWVRQMPGKGLEWMGIIYPGDSDTRYSPSFQGQVTISADKSISTAYLQWSSLKASDTAMYYCARLTLSYSSSWFDYWGQGTLVTVSSQTVVTQEPSFSVSPGGTVTLTCGLSSGSVSTSYYPSWYQQTPGQAPRTLIYSTNTRSSGVPDRFSGSILGNKAALTITGAQADDESDYYCVLYMGSGISVFGGGTKLTVL
